# In patent US20090022669A1, “COMPOSITIONS FOR PROTEIN DELIVERY VIA THE PULMONARY ROUTE” (VAPOTRONICS, INC., priority 2001, published 2009):
# How the values were obtained:
# [1] = Molecular assays (HPLC, mass spectrometry, isoelectric focusing, immunoassay) of recovered aerosol versus initial formulation; assay type: physicochemical
# Source text: During testing, it was useful to ensure that the composition of the aerosol emanating from the device was the same in all discernable aspects as the formulation filled into the device.
# [2] = Droplet size of the thermal inkjet aerosol measured by Malvern laser; assay type: physicochemical; conditions: hGH 2 mg/mL, 6% w/w PEG 3000, 0.1% w/v TWEEN 20, unbuffered
# [3] = test system: receptors introduced to the cells specific to the test protein; experiment: Transgenic cell bioassay of recovered aerosol versus formulation before aerosolization; assay type: cell-based; conditions: hGH 2 mg/mL, 6% w/w PEG 3000, 0.1% w/v TWEEN 20; thermal inkjet, aerosol condensed and recovered; FIG. 1
# Experimental: Proteins were tested with a transgenic cell bioassays with receptors introduced to the cells specific to the test protein. These bioassays were appropriate for indicating the functional effectiveness of the protein. Molecular assays were performed to indicate the primary or tertiary structure of the molecule. Assays used included size exclusion high performance liquid chromatography, reverse phase high performance liquid chromatography, mass spectrometry, isoelectric focusing and immunoassay.
# Each protein was formulated at a concentration that was calculated to be of clinical significance such that the plume of aerosol contained the required amount of therapeutic. Humectant was added to the protein formulation which was filled into an inkjet cartridge and fired from the cartridge.
# Resistor surfaces and nozzles were inspected by Scanning Electron Microscopy to establish the cleanliness of the surfaces and subsequently the effectiveness of the humectant and surfactant. When humectant and surfactant concentrations were suitable, the aerosol from the device was collected, analyzed, and compared with the solution before aerosolization.
# Human growth hormone (hGH) was formulated at 2 mg/mL with 6% w/w PEG 3000 and 0.1% w/v TWEEN® 20. The formulation was unbuffered and no additional salts were added to the formulation. […]
molecule,measurement,setting,value
"CN1CCCC1c1cccnc1 (centres unmarked) [Nicotine, reference compound]",comparison of solution during or after dosage (aerosolization),[1]; nicotine up to 50% w/w in water with 0.1% w/v TWEEN 20,no measurable difference
Human growth hormone,average droplet size of formulation aerosol,[2],8 μm
same,bioassay comparison of formulation before and after aerosolization,[3],no measurable difference
same,HPLC comparison of formulation before and after aerosolization,"[1]; hGH 2 mg/mL, 6% w/w PEG 3000, 0.1% w/v TWEEN 20, thermal inkjet, aerosol condensed and recovered",no measurable difference
Insulin,"reverse-phase HPLC comparison (retention time, peak shape) before, after recovered and after repeated aerosolization","[1]; insulin 10 mg/mL, 6% w/v PEG 8000, 0.1% w/v TWEEN 80, thermal inkjet, FIG. 2",no measurable differences
